Columns and labels:
[1] = molecular target: hu N(A2-B2)A-avi-His B (human); test: SPR (Biacore T200), CEA construct immobilised, Fab as analyte, 1:1 Langmuir fit
[2] = molecular target: human CEACAM5 (CEA) on cells (human) (UniProt P06731); test: flow cytometry on MKN45 cells; parameters: unit not given beside the values
Sequence of human CEACAM5 (CEA) on cells (human) (P06731 35-685 E398K limits assumed): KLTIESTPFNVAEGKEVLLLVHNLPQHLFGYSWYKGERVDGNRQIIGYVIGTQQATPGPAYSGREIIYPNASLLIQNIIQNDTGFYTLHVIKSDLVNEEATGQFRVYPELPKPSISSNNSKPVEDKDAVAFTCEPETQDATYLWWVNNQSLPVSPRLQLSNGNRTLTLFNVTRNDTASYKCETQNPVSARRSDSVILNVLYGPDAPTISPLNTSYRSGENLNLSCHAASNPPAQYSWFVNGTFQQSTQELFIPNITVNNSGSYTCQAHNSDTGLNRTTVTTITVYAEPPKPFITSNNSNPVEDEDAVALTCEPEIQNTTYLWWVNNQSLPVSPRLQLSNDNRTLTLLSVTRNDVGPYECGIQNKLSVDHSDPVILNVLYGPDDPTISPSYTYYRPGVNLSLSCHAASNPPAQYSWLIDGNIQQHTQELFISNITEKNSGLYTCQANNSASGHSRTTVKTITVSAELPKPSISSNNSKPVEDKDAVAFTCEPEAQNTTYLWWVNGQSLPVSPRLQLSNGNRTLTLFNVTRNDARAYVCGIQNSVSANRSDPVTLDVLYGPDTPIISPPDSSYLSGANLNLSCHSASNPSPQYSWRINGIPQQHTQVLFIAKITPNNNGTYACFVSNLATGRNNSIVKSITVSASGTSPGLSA

Sequence of hu N(A2-B2)A-avi-His B (human) (P06731 whole entry): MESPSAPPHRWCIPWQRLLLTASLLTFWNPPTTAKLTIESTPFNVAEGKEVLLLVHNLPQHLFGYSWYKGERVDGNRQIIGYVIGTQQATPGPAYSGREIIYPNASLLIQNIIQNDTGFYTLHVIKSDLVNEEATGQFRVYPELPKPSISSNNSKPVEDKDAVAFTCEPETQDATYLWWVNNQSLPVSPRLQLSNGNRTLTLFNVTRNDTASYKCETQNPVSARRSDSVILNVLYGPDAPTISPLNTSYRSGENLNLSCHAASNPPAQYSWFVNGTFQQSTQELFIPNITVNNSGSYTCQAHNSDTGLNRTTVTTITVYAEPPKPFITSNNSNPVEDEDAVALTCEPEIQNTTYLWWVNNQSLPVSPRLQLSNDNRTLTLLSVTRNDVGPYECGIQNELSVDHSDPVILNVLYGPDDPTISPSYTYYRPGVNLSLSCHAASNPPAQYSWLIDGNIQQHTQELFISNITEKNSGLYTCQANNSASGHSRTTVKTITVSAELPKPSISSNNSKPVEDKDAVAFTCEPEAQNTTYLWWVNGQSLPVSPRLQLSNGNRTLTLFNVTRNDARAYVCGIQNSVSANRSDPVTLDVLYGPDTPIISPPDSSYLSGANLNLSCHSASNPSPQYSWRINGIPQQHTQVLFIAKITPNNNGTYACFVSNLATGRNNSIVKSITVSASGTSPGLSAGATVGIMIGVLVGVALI

| Binder | Kd [1] [nM] | AUC [2] |
| --- | --- | --- |
| P1AE0289 CEA (A5B7) Fab (parental murine antibody) (Fab, V domains shown) VH: EVKLVESGGGLVQPGGSLRLSCATSGFTFTDYYMNWVRQPPGKALEWLGFIGNKANGYTTEYSASVKGRFTISRDKSQSILYLQMNTLRAEDSATYYCTRDRGLRFYFDYWGQGTTLTVSS VL: QTVLSQSPAILSASPGEKVTMTCRASSSVTYIHWYQQKPGSSPKSWIYATSNLASGVPARFSGSGSGTSYSLTISRVEAEDAATYYCQHWSSKPPTFGGGTKLEIK | 0.559 |  |
| P1AE4135 Fab derived from P1AE2164 (Fab, V domains shown) VH: EVQLLESGGGLVQPGGSLRLSCAASGFTFTDYYMNWVRQAPGKGLEWLGFIGNKANGYTTEYSASVKGRFTISRDKSKNTLYLQMNSLRAEDTATYYCTRDRGLRFYFDYWGQGTTVTVSS VL: QTVLTQSPATLSLSPGERATLSCRASSSVTYIHWYQQKPGSSPKSWIYATSNLASGIPARFSGSGSGTDYTLTISSLEPEDFAVYYCQHWSSKPPTFGQGTKLEIK | 1.7 |  |
| P1AE4141 Fab derived from P1AE2179 (Fab, V domains shown) VH: EVQLLESGGGLVQPGGSLRLSCAASGFTFTDYYMNWVRQAPGKGLEWVGFIGNKANGYTTEYSASVKGRFTISRDKSKNTLYLQMNSLRAEDTAVYYCARDRGLRFYFDYWGQGTTVTVSS VL: QTVLTQSPATLSLSPGERATLSCRASSSVTYIHWYQQKPGSSPKSWIYATSNLASGIPARFSGSGSGTDYTLTISSLEPEDFAVYYCQHWSSKPPTFGQGTKLEIK | 1.83 |  |
| P1AE4138 Fab derived from P1AE2167 (Fab, V domains shown) VH: EVQLLESGGGLVQPGGSLRLSCAASGFTFTDYYMNWVRQAPGKGLEWLGFIGNKANGYTTEYSASVKGRFTISRDKSKNTLYLQMNSLRAEDTATYYCTRDRGLRFYFDYWGQGTTVTVSS VL: EIVLTQSPATLSLSPGERATLSCRASSSVTYIHWYQQKPGQAPRSWIYATSNLASGIPARFSGSGSGTDFTLTISSLEPEDFAVYYCQHWSSKPPTFGQGTKLEIK | 1.47 |  |
| P1AE4143 Fab derived from P1AE2182 (Fab, V domains shown) VH: EVQLLESGGGLVQPGGSLRLSCAASGFTFTDYYMNWVRQAPGKGLEWVGFIGNKANGYTTEYSASVKGRFTISRDKSKNTLYLQMNSLRAEDTAVYYCARDRGLRFYFDYWGQGTTVTVSS VL: EIVLTQSPATLSLSPGERATLSCRASSSVTYIHWYQQKPGQAPRSWIYATSNLASGIPARFSGSGSGTDFTLTISSLEPEDFAVYYCQHWSSKPPTFGQGTKLEIK | 2.92 |  |
| P1AE4136 Fab derived from P1AE2165 (Fab, V domains shown) VH: EVQLLESGGGLVQPGGSLRLSCAASGFTFTDYYMNWVRQAPGKGLEWLGFIGNKANGYTTEYSASVKGRFTISRDKSKNTLYLQMNSLRAEDTATYYCTRDRGLRFYFDYWGQGTTVTVSS VL: QTVLTQSPATLSLSPGERATLSCRASSSVTYIHWYQQKPGQAPRLLIYATSNLASGIPARFSGSGSGTDFTLTISSLEPEDFAVYYCQHWSSKPPTFGQGTKLEIK | 1.25 |  |
| P1AE4137 Fab derived from P1AE2166 (Fab, V domains shown) VH: EVQLLESGGGLVQPGGSLRLSCAASGFTFTDYYMNWVRQAPGKGLEWLGFIGNKANGYTTEYSASVKGRFTISRDKSKNTLYLQMNSLRAEDTATYYCTRDRGLRFYFDYWGQGTTVTVSS VL: EIVLTQSPATLSLSPGERATLSCRASSSVTYIHWYQQKPGSSPKSWIYATSNLASGIPARFSGSGSGTDFTLTISSLEPEDFAVYYCQHWSSKPPTFGQGTKLEIK | 11.3 |  |
| P1AE4139 Fab derived from P1AE2176 (Fab, V domains shown) VH: EVQLLESGGGLVQPGGSLRLSCAASGFTFTDYYMNWVRQAPGKGLEWVGFIGNKANGYTTEYSASVKGRFTISRDNSKNTLYLQMNSLRAEDTAVYYCTRDRGLRFYFDYWGQGTTVTVSS VL: EIVLTQSPATLSLSPGERATLSCRASSSVTYIHWYQQKPGSSPKSWIYATSNLASGIPARFSGSGSGTDFTLTISSLEPEDFAVYYCQHWSSKPPTFGQGTKLEIK | 7.58 |  |
| P1AE4142 Fab derived from P1AE2181 (Fab, V domains shown) VH: EVQLLESGGGLVQPGGSLRLSCAASGFTFTDYYMNWVRQAPGKGLEWVGFIGNKANGYTTEYSASVKGRFTISRDKSKNTLYLQMNSLRAEDTAVYYCARDRGLRFYFDYWGQGTTVTVSS VL: EIVLTQSPATLSLSPGERATLSCRASSSVTYIHWYQQKPGSSPKSWIYATSNLASGIPARFSGSGSGTDFTLTISSLEPEDFAVYYCQHWSSKPPTFGQGTKLEIK | 2.64 |  |
| P1AE4140 Fab derived from P1AE2177 (Fab, V domains shown) VH: EVQLLESGGGLVQPGGSLRLSCAASGFTFTDYYMNWVRQAPGKGLEWVGFIGNKANGYTTEYSASVKGRFTISRDNSKNTLYLQMNSLRAEDTAVYYCTRDRGLRFYFDYWGQGTTVTVSS VL: EIVLTQSPATLSLSPGERATLSCRASSSVTYIHWYQQKPGQAPRSWIYATSNLASGIPARFSGSGSGTDFTLTISSLEPEDFAVYYCQHWSSKPPTFGQGTKLEIK | 7.62 |  |
| P1AE3108 (antibody, IgG1, V domains shown) VH: QVQLVQSGAEVKKPGSSVKVSCKASGFNIKDSYMHWVRQAPGQGLEWMGWIDPENGDTEYAPKFQGRVTITTDESTSTAYMELSSLRSEDTAVYYCNEGTPTGPYYFDYWGQGTLVTVSS VL: EIQMTQSPSSLSASVGDRVTITCRASQSISSYMHWYQQKPGKAPKLLIYSTSNLASGVPSRFSGSGSGTDFTLTISSLQPEDFATYYCQQRSSYPLTFGGGTKLEIK |  | 2090 |

— patent publication US20210253724A1
